Results published in the supplement of paper PMC7877785.
± gives the uncertainty stated by the source.

Test: self-splicing fitness, log relative to wild type (ln ratio); higher = more splicing; Tetrahymena group I intron in knt gene, E. coli kanamycin selection, DiMSum; sequences stand for … in CUCUCU…GGAGGGAAAAGUUAUCAGGCAUGCACCUGGUAGCUAGUCUUUAAACCAAUAGAUUGCAUCGGUUUAAAAGGCAAGACCGUCAAAUUGCGGGAAAGGGGUCAACAGCCGUUCAGUACCAAGUCUCAGGGGAAACUUUGAGAUGGCCUUGCAAAGGGUAUGGUAAUAAGCUGACGGACAUGGUCCUAACCACGCAGCCAAGUCCUAAGUCAACAGAUCUUCUGUUGAUAUGGAUGCAGUUCACAGACUAAAUGUCGGUCGGGGAAGAUGUAUUCUUCUCAUAAGAUAUAGUCGGACCUCUCCUUAAUGGGAGCUAGCGGAUGAAGUGAUGCAACACUGGAGCCGCUGGGAACUAAUUUGUAUGCGAAAGUAUAUUGAUUAGUUUUGGAGUACUCGUGGUCG
Outline: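 DiMSum derived fitness as the error-weighted combination of fold changes across replicates, kanamycin versus no kanamycin, normalised to wild type. E. coli BL21(DE3) held the library, which randomised all eight P1ex-region intron nucleotides within the knt kanamycin-resistance gene on pET-22b(+). Six replicate transformations grew overnight at 37°C or 30°C on LB agar with or without 25 μg/mL kanamycin, also containing 100 μg/mL carbenicillin, 50 μM IPTG and 0.2% rhamnose, and pooled colonies were amplicon-sequenced on an Illumina HiSeq 2500.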

GGCCAGCAAUAUUACGAUAU
self-splicing fitness (ln) (30 °C): -1.67 ± 0.08
self-splicing fitness (ln) (37 °C): -1.78 ± 0.1

GGCCAGCAAUAUUACGCAUA
self-splicing fitness (ln) (30 °C): -1.52 ± 0.095
self-splicing fitness (ln) (37 °C): -0.945 ± 0.12

GGCCAGCAAUAUUACGCGGG
self-splicing fitness (ln) (30 °C): -3.29 ± 0.48
self-splicing fitness (ln) (37 °C): -3.29 ± 0.37

GGCCAGCAAUAUUACGCGUA
self-splicing fitness (ln) (30 °C): -1.07 ± 0.11
self-splicing fitness (ln) (37 °C): -0.484 ± 0.1

GGCCAGCAAUAUUACGGAGA
self-splicing fitness (ln) (30 °C): -0.788 ± 0.095
self-splicing fitness (ln) (37 °C): -0.565 ± 0.086

GGCCAGCAAUAUUACGGCUG
self-splicing fitness (ln) (30 °C): -1.41 ± 0.12
self-splicing fitness (ln) (37 °C): -0.562 ± 0.2

GGCCAGCAAUAUUACGGGCG
self-splicing fitness (ln) (30 °C): -2.13 ± 0.2
self-splicing fitness (ln) (37 °C): -2.02 ± 0.26

GGCCAGCAAUAUUACGGUUU
self-splicing fitness (ln) (30 °C): -0.995 ± 0.067
self-splicing fitness (ln) (37 °C): -0.401 ± 0.074

GGCCAGCAAUAUUACGUCCU
self-splicing fitness (ln) (30 °C): -1.47 ± 0.21
self-splicing fitness (ln) (37 °C): -0.4 ± 0.17

GGCCAGCAAUAUUACGUGCG
self-splicing fitness (ln) (30 °C): -1.17 ± 0.06
self-splicing fitness (ln) (37 °C): -0.564 ± 0.079

GGCCAGCAAUAUUACGUUCG
self-splicing fitness (ln) (30 °C): -2.66 ± 0.12
self-splicing fitness (ln) (37 °C): -1.75 ± 0.11

GGCCAGCAAUAUUACGUUGC
self-splicing fitness (ln) (30 °C): -1.58 ± 0.071
self-splicing fitness (ln) (37 °C): -0.74 ± 0.081

GGCCAGCAAUAUUACGUUUC
self-splicing fitness (ln) (30 °C): -1.4 ± 0.095
self-splicing fitness (ln) (37 °C): -0.362 ± 0.089

GGCGAGCAAUAUUACGAGAA
self-splicing fitness (ln) (37 °C): -2.57 ± 0.41

GGCGAGCAAUAUUACGAUAG
self-splicing fitness (ln) (30 °C): -1.89 ± 0.18
self-splicing fitness (ln) (37 °C): -2.67 ± 0.38

GGCGAGCAAUAUUACGCCCA
self-splicing fitness (ln) (30 °C): -2.15 ± 0.42
self-splicing fitness (ln) (37 °C): -0.478 ± 0.33

GGCGAGCAAUAUUACGCGAA
self-splicing fitness (ln) (30 °C): -2.45 ± 0.2
self-splicing fitness (ln) (37 °C): -1.33 ± 0.16

GGCGAGCAAUAUUACGCUUU
self-splicing fitness (ln) (30 °C): -2.76 ± 0.23
self-splicing fitness (ln) (37 °C): -1.22 ± 0.19

GGCGAGCAAUAUUACGGAAA
self-splicing fitness (ln) (30 °C): -1.06 ± 0.48

GGCGAGCAAUAUUACGGAAG
self-splicing fitness (ln) (30 °C): -4.21 ± 0.3
self-splicing fitness (ln) (37 °C): -1.04 ± 0.2

GGCGAGCAAUAUUACGGAUC
self-splicing fitness (ln) (30 °C): -0.443 ± 0.053
self-splicing fitness (ln) (37 °C): 0.039 ± 0.075

GGCGAGCAAUAUUACGGCUG
self-splicing fitness (ln) (30 °C): -0.315 ± 0.15
self-splicing fitness (ln) (37 °C): -0.389 ± 0.28

GGCGAGCAAUAUUACGGUUC
self-splicing fitness (ln) (30 °C): -1.46 ± 0.13
self-splicing fitness (ln) (37 °C): -0.156 ± 0.13

GGCGAGCAAUAUUACGGUUU
self-splicing fitness (ln) (30 °C): -1.06 ± 0.076
self-splicing fitness (ln) (37 °C): 0.0414 ± 0.11

GGCGAGCAAUAUUACGUACA
self-splicing fitness (ln) (30 °C): -1 ± 0.18
self-splicing fitness (ln) (37 °C): 0.151 ± 0.15

GGCGAGCAAUAUUACGUGCA
self-splicing fitness (ln) (30 °C): -0.905 ± 0.085
self-splicing fitness (ln) (37 °C): -0.435 ± 0.098

GGCGAGCAAUAUUACGUUAA
self-splicing fitness (ln) (30 °C): -2.51 ± 0.19
self-splicing fitness (ln) (37 °C): -1.4 ± 0.2

GGCGAGCAAUAUUACGUUAC
self-splicing fitness (ln) (30 °C): -3.24 ± 0.33
self-splicing fitness (ln) (37 °C): -2.03 ± 0.32

GGCUAGCAAUAUUACGAAAU
self-splicing fitness (ln) (30 °C): -1.67 ± 0.22
self-splicing fitness (ln) (37 °C): 0.0518 ± 0.2

GGCUAGCAAUAUUACGACGU
self-splicing fitness (ln) (30 °C): -0.0784 ± 0.15
self-splicing fitness (ln) (37 °C): 1.15 ± 0.28

GGCUAGCAAUAUUACGAGAC
self-splicing fitness (ln) (30 °C): -3.62 ± 0.44

GGCUAGCAAUAUUACGAGCA
self-splicing fitness (ln) (30 °C): -0.589 ± 0.081
self-splicing fitness (ln) (37 °C): -0.213 ± 0.12

GGCUAGCAAUAUUACGAUUU
self-splicing fitness (ln) (30 °C): -0.855 ± 0.093
self-splicing fitness (ln) (37 °C): 0.68 ± 0.12

GGCUAGCAAUAUUACGCAGU
self-splicing fitness (ln) (30 °C): -1.78 ± 0.34

GGCUAGCAAUAUUACGCGAA
self-splicing fitness (ln) (30 °C): -1.83 ± 0.085
self-splicing fitness (ln) (37 °C): -1.27 ± 0.08

GGCUAGCAAUAUUACGCUCC
self-splicing fitness (ln) (30 °C): -2.32 ± 0.26

GGCUAGCAAUAUUACGGAAC
self-splicing fitness (ln) (30 °C): -1.09 ± 0.1
self-splicing fitness (ln) (37 °C): -0.447 ± 0.13

GGCUAGCAAUAUUACGGAUU
self-splicing fitness (ln) (30 °C): -0.369 ± 0.13
self-splicing fitness (ln) (37 °C): 0.405 ± 0.16

GGCUAGCAAUAUUACGGCCG
self-splicing fitness (ln) (30 °C): -1.45 ± 0.23
self-splicing fitness (ln) (37 °C): -0.656 ± 0.22

GGCUAGCAAUAUUACGGCUA
self-splicing fitness (ln) (30 °C): 0.235 ± 0.32
self-splicing fitness (ln) (37 °C): -0.282 ± 0.42

GGCUAGCAAUAUUACGGGCU
self-splicing fitness (ln) (37 °C): -3.05 ± 0.3

GGCUAGCAAUAUUACGGGGU
self-splicing fitness (ln) (30 °C): -2.25 ± 0.1
self-splicing fitness (ln) (37 °C): -1.29 ± 0.11

GGCUAGCAAUAUUACGUGGG
self-splicing fitness (ln) (30 °C): -2.64 ± 0.17
self-splicing fitness (ln) (37 °C): -1.91 ± 0.2

GGCUAGCAAUAUUACGUGGU
self-splicing fitness (ln) (30 °C): -3.18 ± 0.23
self-splicing fitness (ln) (37 °C): -2.13 ± 0.24

GGCUAGCAAUAUUACGUUGA
self-splicing fitness (ln) (30 °C): -1.26 ± 0.13
self-splicing fitness (ln) (37 °C): 0.455 ± 0.14

GGCUAGCAAUAUUACGUUUG
self-splicing fitness (ln) (30 °C): -2.86 ± 0.11
self-splicing fitness (ln) (37 °C): -1.45 ± 0.12

GGGAAGCAAUAUUACGAAGA
self-splicing fitness (ln) (37 °C): -0.943 ± 0.23

GGGAAGCAAUAUUACGAGAA
self-splicing fitness (ln) (30 °C): -2.16 ± 0.48
self-splicing fitness (ln) (37 °C): -1.78 ± 0.36

GGGAAGCAAUAUUACGAGUG
self-splicing fitness (ln) (30 °C): -3.06 ± 0.12
self-splicing fitness (ln) (37 °C): -1.81 ± 0.11

GGGAAGCAAUAUUACGCAAA
self-splicing fitness (ln) (30 °C): -1.9 ± 0.24
self-splicing fitness (ln) (37 °C): -2 ± 0.17

GGGAAGCAAUAUUACGCCAG
self-splicing fitness (ln) (30 °C): -3.13 ± 0.36

GGGAAGCAAUAUUACGCCGG
self-splicing fitness (ln) (30 °C): -3.75 ± 0.29

GGGAAGCAAUAUUACGCCUG
self-splicing fitness (ln) (30 °C): -0.0824 ± 0.11
self-splicing fitness (ln) (37 °C): -0.324 ± 0.16

GGGAAGCAAUAUUACGCGCU
self-splicing fitness (ln) (30 °C): -2.66 ± 0.28
self-splicing fitness (ln) (37 °C): -0.954 ± 0.27

GGGAAGCAAUAUUACGCUAA
self-splicing fitness (ln) (30 °C): -1.84 ± 0.2
self-splicing fitness (ln) (37 °C): -0.363 ± 0.18

GGGAAGCAAUAUUACGGAGU
self-splicing fitness (ln) (30 °C): -2.86 ± 0.12
self-splicing fitness (ln) (37 °C): -2.05 ± 0.16

GGGAAGCAAUAUUACGGCAU
self-splicing fitness (ln) (30 °C): -0.534 ± 0.16
self-splicing fitness (ln) (37 °C): -0.344 ± 0.19

GGGAAGCAAUAUUACGGGAA
self-splicing fitness (ln) (30 °C): -1.55 ± 0.45
self-splicing fitness (ln) (37 °C): -1.14 ± 0.31

GGGAAGCAAUAUUACGGGCU
self-splicing fitness (ln) (30 °C): -0.942 ± 0.12
self-splicing fitness (ln) (37 °C): -0.846 ± 0.12

GGGAAGCAAUAUUACGUAAA
self-splicing fitness (ln) (30 °C): -1.53 ± 0.21
self-splicing fitness (ln) (37 °C): -1.56 ± 0.3

GGGAAGCAAUAUUACGUAGC
self-splicing fitness (ln) (30 °C): -1.84 ± 0.18
self-splicing fitness (ln) (37 °C): -1.37 ± 0.16

GGGAAGCAAUAUUACGUGUU
self-splicing fitness (ln) (30 °C): -3.17 ± 0.21
self-splicing fitness (ln) (37 °C): -1.9 ± 0.16

GGGAAGCAAUAUUACGUUGU
self-splicing fitness (ln) (30 °C): -3.23 ± 0.22
self-splicing fitness (ln) (37 °C): -2.31 ± 0.29

GGGCAGCAAUAUUACGAAAA
self-splicing fitness (ln) (30 °C): -2.12 ± 0.38
self-splicing fitness (ln) (37 °C): -2.31 ± 0.4

GGGCAGCAAUAUUACGAACA
self-splicing fitness (ln) (30 °C): -0.951 ± 0.17
self-splicing fitness (ln) (37 °C): -0.607 ± 0.18

GGGCAGCAAUAUUACGAAUU
self-splicing fitness (ln) (30 °C): -0.318 ± 0.12
self-splicing fitness (ln) (37 °C): -0.166 ± 0.17

GGGCAGCAAUAUUACGACUA
self-splicing fitness (ln) (30 °C): -0.237 ± 0.094
self-splicing fitness (ln) (37 °C): 0.125 ± 0.11

GGGCAGCAAUAUUACGAGUA
self-splicing fitness (ln) (30 °C): -2.78 ± 0.42
self-splicing fitness (ln) (37 °C): -2.53 ± 0.33

GGGCAGCAAUAUUACGAUAU
self-splicing fitness (ln) (30 °C): -0.768 ± 0.099
self-splicing fitness (ln) (37 °C): -0.877 ± 0.1

GGGCAGCAAUAUUACGAUCG
self-splicing fitness (ln) (30 °C): -0.913 ± 0.098
self-splicing fitness (ln) (37 °C): 0.377 ± 0.15

GGGCAGCAAUAUUACGAUGU
self-splicing fitness (ln) (30 °C): -3.92 ± 0.3
self-splicing fitness (ln) (37 °C): -0.5 ± 0.18

GGGCAGCAAUAUUACGAUUA
self-splicing fitness (ln) (30 °C): -1.27 ± 0.14
self-splicing fitness (ln) (37 °C): -1.63 ± 0.15

GGGCAGCAAUAUUACGCAAA
self-splicing fitness (ln) (30 °C): -1.39 ± 0.099
self-splicing fitness (ln) (37 °C): -0.884 ± 0.11

GGGCAGCAAUAUUACGCAAG
self-splicing fitness (ln) (30 °C): -1.37 ± 0.24
self-splicing fitness (ln) (37 °C): -0.431 ± 0.23

GGGCAGCAAUAUUACGCACG
self-splicing fitness (ln) (30 °C): 0.202 ± 0.26
self-splicing fitness (ln) (37 °C): -1.16 ± 0.19

GGGCAGCAAUAUUACGCCCU
self-splicing fitness (ln) (30 °C): -2.78 ± 0.4

GGGCAGCAAUAUUACGCCGA
self-splicing fitness (ln) (30 °C): -0.407 ± 0.078
self-splicing fitness (ln) (37 °C): 0.467 ± 0.1

GGGCAGCAAUAUUACGCUUU
self-splicing fitness (ln) (30 °C): -0.861 ± 0.057
self-splicing fitness (ln) (37 °C): 0.0207 ± 0.075
